The DeepSol protein solubility set

Experiment: soluble on expression in E. coli; label from the status in PepcDB or PDB records

Sequence	soluble on expression in E. coli
MSLKNFINFHILISHSPSCLNRDDMNMQKSAVFGGERRVRVSSQSLKRAIRKSDYYRQHLGEASVRTKKLDELIAIINDRLAGRYDTDLLKKTVGLLAGKELSVEVATEGDAVAPWAIEEVAWFCEQVKRMVAQGQDEKALGKLLKNETAAMRQALASGVDIALSGRMATSGLMSELGKVDGALAVAHVLTTHSVDADIDWFTAVDDLQELGSGHLDTQEFSSGVFYRYASLNVKQLQENLGNAPREKALEIGAHLLHMLATIVPSAKQQSFAAHNLADLALVSFSDIPVSLANAFEKPVRSVNGSGFKEPSIAELHNYWQQIHTGYGLSERCGEFILGQSSVPEGITRKSTIEELKTWVMNNGEGEGHHHHHH	soluble
MASTELSLKRTLTDILEDELYHTNPGHSQFTSHYQNYHPNASITPYKLVNKNKENNTFTWNHSLQHQNESSAASIPPQQTYHFPIFNKYADPTLTTTTSFTTSEATANDRQINNVHLIPNEIKGASETPLQKTVNLKNIMKVSDPYVPTRNTFNYDVKISNDFFDNGDNLYGNDEEVLFYEDNYNPKMQWSLQDNSAAINNEDARAIFNNEFDSDDDDISDDEEDEIEENCLQQEQHQEEPLLSLDVTPISMFGSDQKTGRAKSSSHLFNEYSYVDSNMDSISSVVSEDLLDERGHEKIEDEDEDNDLDEDDIYDISLLKNRRKQSFVLNKNTIDFERFPSPSTSANVPSTATTGKRKPAKSSSNRSCVSNSNENGTLERIKKPTSAVVSSNASRRKLINYTKKHLSSHSSTNSNSKPSTASPSAHTSSSDGNNEIFTCQIMNLITNEPCGAQFSRSYDLTRHQNTIHAKRKIVFRCSECIKILGSEGYQKTFSRLDALTRHIKSKHEDLSLEQRQEVTKFAKANIGYVMG	not soluble
MKIKYFFIPLFSSAILFSACSSIQSDLRNLIKETTGKDFDVSKLIKTSEGRKNLINSLKKSYESKPDETASLLLIAWKQSAEMGEIGFDDIKEGGIYTRDNDPFKLEQKVEYFNMEYKILVMF	soluble
MTQTNNPLHGITLETIITQLVEHYGWEELGARIKIRCFTEAPSIKSSLRFLRKTDWAREKVEYLYLKTNKLPLPAAKSIQAPAKEPSKKSAPKPNSKPTQTKVVTPTPAVEGQVNSHIWGKRDLEHHHHHH	soluble
MSLQGRRRKSLVFFPFFKINDKGASAMEEMVVVTPEKLEKLMKQKLEAAGLHSEHAEEVARHLTFADASGIHSHGAVRMDYYAERIAKGGITIDPELSFEKTGPSTAIFHGDNGVGQFVCNEALAAAVDLAKESGVAYVGVSQTSHSGTLSYYVKKAAEQGMVALSMCQSDPMVVPFGGTSNYFGTNPIAFAAPRAGHEPVVFDMATTVQAWGKILDARSRDVEIPDTWAVDEKGQPTTDPYEVRGLLPISGPKGYGLMMMVDVLAGSLLGLPFGKHVSSMYADLTEKRNLGQMFLVIDPSRFTDSERFKENINQMVEELHCVPTAEGFQQVYYPGEIGQLNYQKAMSEGIEIPQSIYDYLVSEIVHYDKYGGQGAFAKEGGSHHHHHH	soluble
MTKLVLTPADTFFFKNHHATQAGETTVMESMFPPRPNTIYGALRAAYIYAYSSFDEFARGADERVKLWMGTPDERGAFRLHYCALADGDSLFLPLPLDYQVVEEGDSLKAYPLQLAKDRKPSSASTMWRLASSRREKTKSSQHRYVSLSEWKKALLLNQPIASLRTLSSFIVQEEKVGIQLDVSRRTAQEGFLYRVGKHRFLGDSSLVAYIDDGPDFSNVKWARIGGENRPWFIRQHPEEFRLWNDDEKRRIEQDIQRTKMAKIIFLSPAIFANGSRPAAMEGDRWTWPNGAVVTWLAAAIGRPELYGGWDIVRHRPKPRKWMIPAGSVIYVKIERDDDLRLVFSALDGIHLTDEGAEEGFGFAVLASVHESEEEL	not soluble
MSLNNYPFASMRDCFDMSAYFVVGPQDCKGRPVTDVVDDALRGGATFIQLRAKNADAKDITEMARDIAQVIKNSGKSDSVAFVIDDRVDVVWQARDKGIKVDGVHIGQTDMEPQEARALLGEDAIVGLSAETESLVKLINELPSGCIDYIGAGPLHVSTTKPEASVGGNDGSGHTLDEEQINAICAASEFPVVVGGGVHADDMEMLARSKAAGWFVVSAIAGADDPEAATREMVTRWKAVRGDAEGHHHHHH	soluble
MHEWALADAIVRTVLDYAQKEGASRVKAVKVVLGELQDVGEDIVKFAMEELFRGTIAEGAEIIFEEEEAVFKCRNCGHVWKLKEVKDKLDERIREDIHFIPEVVHAFLSCPKCGSHDFEVVKGRGVYISGIMIEKEGEELEHHHHHH	soluble
MNLGFRVTGKFVRELLDVLDEIAEEIRQEEKEKYPYTEWERKREVVKERLRKLPEYVREAISVITVQKRVGRPKKVDLEKRVMLFLFARLMDKSNRDIEELLELFEPLFGIKVSYKTIERLYSDEEVRMALHNLFILLLREEGVSGDFSGDGTGYSLTITKHYRSNPKRKGKDFRYVFRIIDIDTGMYVGFGYSDRSEKDAFEKALGMLKSMGVKVNSISLDKYYSSRKTLRLFDAETAVYVIPKRNLARIGFDWLRVIERIVEAPYRFLKRYFKRNLSEAGFSADKRRFGWLIRQRREDRREMALFAVGLWHNVFAVRVVR	not soluble
MKLTDSVLRSFRVAKVFRENSDKINCFDFSSNGETVISSSDDDSIVLYDCQEGKPKRTLYSKKYGVDLIRYTHAANTVVYSSNKIDDTIRYLSLHDNKYIRYFPGHNKRVVALSMSPVDDTFISGSLDKTIRLWDLRSPNCQGLMHLQGKPVCSFDPEGLIFAAGVNSEMVKLYDLRSFDKGPFATFKLQYERTCEWTGLKFSNDGKLILVSTNGGTLRVLDAFKGAVLHSFGGYNNSKGVILEAPFTPDSQFIMIGSEDGKIHVWNAESGMKVALLDGKHTGPVTCLQFNPKFMTFASACSNMAFWLPTIDD	not soluble
MTYAESTRSAVVYSSIVPPPRTPVGPPMLKDGVRKGSASQPLQPKNGANSLDYWSKSEDEKSGITCYYSRHNIQFPPPQRKMKPVKPNPVGRSTINGFTPSTSSPQNGLRYPPFPQNTPESVMSPPVGIYRNIPAMPRAKLTKDEKNGGKMNRDGGGENPKNVVWGGTSRKDDDTASTPLNSFSANASIEKKRSTARRKPRWARCFQTLFCCVTPPREIEKIQSSQRTNSTNNNHQNGRPSTPTNTGPPIQLITQVHRDGTVTGLPTTGQACQQNGSGDGVTPYDKIANDSVGTINEKPLLPPLLPQDSNKKCLVIDLDETLVHSSFKPVKNPDFVIPVEIDGVEHQVYVLKRPYVDEFLAKVGEHFECILFTASLAKYADPVADLLDKKRVFRGRLFREACVFHKGNYVKDLSRLGRNLNQTLIIDNSPASYAFHPENAVPVTTWFDDPSDTELLDILPSLEHLNGFSSIYDLYRPEEGPQSELLNHCSC	not soluble
MGSDKIHHHHHHVARLVASVDKYIYTVNGDTILSHQFISNNAQFGNGIEVSQDNHFPWSGEIHYEINNPNQLAFKLGIRIPSWSRNKFGLKINGKKIDLASEDGFIYINVNDESLTVDLSLDMNTKFMRSSNKVSSNYGKIAVQRGPIVYAAEETDNKAPLWNYKVETDKEPKYHYNKDLLEGVGTITVKSIAEEISPEDGPLYSTIDEATANYETDLKLIPYYAWANREEGQMQVWLNK	not soluble
TSGTLYLVGTPIGNLDDMTFRAIATLKNVDLIAAEDTRHTGKLLKHFQIATPQISYHDHNRHQRQAQLLEKLRSGLNIALVSDAGLPGISDPGFELVASAIDTEITVVPIPGV	not soluble
MENREPPLLPARWSSAYVSYWSPMLPDDQLTSGYCWFDYERDICRIDGLFNPWSERDTGYRLWMSEVGNAASGRTWKQKVAYGRERTALGEQLCERPLDDETGPFAELFLPRDVLRRLGARHIGRRVVLGREADGWRYQRPGKGPSTLYLDAASGTPLRMVTGDEASRASLRDFPNVSEAEIPDAVFAAKRLEHHHHHH	soluble
WQYMFYSALSIFVSGKVTDAVYTKQKKMQVMIVTKNPDRVVDEIQKKMRRGITIIHEAEGAYRHDRQTVLLTIVTRFELPSLEAAMKESDPNAFVSISDNVKILGRFYEEDYK	not soluble
MKSSEEQALAGIELDDDAVMQYLLQNPDFFIRNARLVEQMHIPHPVRGTVSLVEWQLGRQRNQIGQLEEEITLLMEQAGLNEVLFNRLLQLQGNLAAASSLQDMLNRLQRWARDFGLAGANVRLFTDRWQIGAPSDFTHLGLSRHAFEPMRIQRLGNARHYLGSLNGPELLLLLPQAKQVGSVALSLLGKEGDLGVIVFSSRDIQHYQQGMGTVMLNQLSMLLPSLLERWIEPVLEHHHHHH	not soluble
MRGVVGVLALQGDFREHKEALKRLGIEAKEVRKKEHLEGLKALIVPGGESTTIGKLAREYGIEDEVRKRVEEGSLALFGTCAGAIWLAKEIVGYPEQPRLGVLEAWVERNAFGRQVESFEEDLEVEGLGSFHGVFIRAPVFRRLGEGVEVLARLGDLPVLVRQGKVLASSFHPELTEDPRLHRYFLELAGV	soluble
MTVELCGRWDARDVAGGRYRVINNVWGAETAQCIEVGLETGNFTITRADHDNGNNVAAYPAIYFGCHWGACTSNSGLPRRVQELSDVRTSWTLTPITTGRWNAAYDIWFSPVTNSGNGYSGGAELMIWLNWNGGVMPGGSRVATVELAGATWEVWYADWDWNYIAYRRTTPTTSVSELDLKAFIDDAVARGYIRPEWYLHAVETGFELWEGGAGLRSADFSVTVQKLAAALEIKRASQPELAPEDPEDVEHHHHHH	soluble
MGSDKIHHHHHHMRIFTASLATETNTFSPVPTDRASFEMAFYAAPGKHPETPTLCSSPIVALRKRAAAEGLTVIEGTATWAEPGGLLQRQAFEELRDEILDQLKAAMPVDAVVLGLHGAMVAQGYDDCEGDLLERVRAIVGPGVLVASEFDPHSHLTPKRVQNLNIFASFLEFPHTDFYERGEHVVELALDALKGRTKPVISTFDCRMIAVLPTSKEPMRSFVDRIKALQGKDGILSISVIHGFMAADVPEMGTRILVVTDNDPQAGAALAAALGRELIAMREQTSMAMLDTDQGIDRALAAHAANPSKPAVIADVWDNPGGGVAGDGTYILRRLIERGVNNAGIATIWDPIAVTFCHAAGEGAVIDLRFGGKSGPLGGEPIDARVTVLKVANEGWQSFGPSRVTLGPSAVVRIEDTGIDIILNTNRTQTFEPDIFSNLGIDPMTKNVLVVKSTNHFHAGFAPVAAEIIYVDAPSSYPSNPRTTNYRKLNRAIWPRVEDPW	not soluble
MKKIPQISDAELEVMKVIWKHSSINTNEVIKELSKTSTWSPKTIQTMLLRLIKKGALNHHKEGRVFVYTPNIDESDYIEVKS	soluble
MKKPIHSHRAATLYHFAFCLHNLRRSPNSPFTVRNRDEQKDEKPYENKGKINKFFLDLTYFQLPYPVSERAPLRLRAKIETREKINFKIRASSSPAVLVNFPFPRHSLLVSLSPAHETNNAVDGEALHPRAQRA	not soluble
MHESARHIVDLYQRHARAWDQRRRANPEAFEGEQAWLERFRRVMGQGGQVLDLGCGGGEPIARNLIEHQCAVTGVDSSATLLDHCRQRFAGQQWIHADMRSLALDQDFAGILAWNSLFHLSPDDQRAMFTVFERHAGPGCALMFTSGPEAGEAIGEFEGEALYHASLSPGEYCTLLDTHGFEVVQHISEDPDCCGFTVWLARAIDWGLEHHHHHH	not soluble
MSLAYQSEYALENEMMNQLEQLGYERVTIRDNKQLLDNFRTILNERHADKLEGNPLTDKEFQRLLTMIDGKSIFESARILRDKLPLRRDDESEIYLSFLDTKSWCKNKFQVTNQVSVEDTYKARYDVTILINGLPLVQVELKRRGIDINEAFNQVKRYRKQNYTGLFRYIQMFIISNGVETRYFSNNDSELLKSHMFYWSDEGHHHHHH	not soluble
